Measured values published in patent US20130224191A1, “NOTUM PROTEIN MODULATORS AND METHODS OF USE” (priority 2010, published 2013).
“Also recorded” adds a separate entry of the source.

What was measured:
Notum = target: T1, Notum (Homo sapiens, UniProt Q6P988); test: Bio-layer interferometry on ForteBIO RED; type: binding; settings: 250, 125 and 62.5 nM antigen
T1 sequence (Q6P988 20-496): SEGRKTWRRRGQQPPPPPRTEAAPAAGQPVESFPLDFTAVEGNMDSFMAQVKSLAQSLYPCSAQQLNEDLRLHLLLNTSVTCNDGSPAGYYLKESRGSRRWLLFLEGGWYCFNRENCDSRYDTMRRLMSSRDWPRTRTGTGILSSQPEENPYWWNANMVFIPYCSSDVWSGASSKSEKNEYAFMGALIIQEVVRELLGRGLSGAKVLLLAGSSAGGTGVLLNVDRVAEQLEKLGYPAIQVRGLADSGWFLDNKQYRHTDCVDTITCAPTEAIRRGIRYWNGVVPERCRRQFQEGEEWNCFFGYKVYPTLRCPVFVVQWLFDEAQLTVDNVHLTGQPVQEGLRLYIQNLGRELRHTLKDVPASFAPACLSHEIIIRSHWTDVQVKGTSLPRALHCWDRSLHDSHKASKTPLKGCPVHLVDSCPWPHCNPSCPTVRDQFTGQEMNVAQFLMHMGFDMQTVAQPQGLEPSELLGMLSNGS
Description: Three methods were used to characterize the affinity of humanized SC2.D2.2 relative to its analogous mAb with the murine variable region. First, binding signal was measured for a fixed amount of antibody probed against serial dilutions of antigen in an ELISA format. […] Second, the affinity of murine SC2.D2.2 was measured by Biacore using surface plasmon resonance (SPR) to provide the results set forth in FIG. 32A. Based on a concentration series of 12.5, 6.25, 3.125, 1.5625, 0.78125 nM and using a 1:1 Langmuir binding model, the Kd of the antibody binding to antigen was estimated to be less than 0.1 nM. Long off-rates for this interaction made accurate determination of affinity through kinetics difficult. The murine antibody was then directly compared to the humanized derivative using bio-layer interferometry analysis on a ForteBIO RED (ForteBIO, Inc.) with a concentration series of 250, 125, and 62.5 nM antigen.

murine Notum-His = target: T2, murine Notum-His (Mus musculus, UniProt Q8R116); test: Neutralization of murine Notum in 293.TCF assay; type: cell-based
T2 construct: His tag; made in house
T2 sequence (Q8R116 20-503): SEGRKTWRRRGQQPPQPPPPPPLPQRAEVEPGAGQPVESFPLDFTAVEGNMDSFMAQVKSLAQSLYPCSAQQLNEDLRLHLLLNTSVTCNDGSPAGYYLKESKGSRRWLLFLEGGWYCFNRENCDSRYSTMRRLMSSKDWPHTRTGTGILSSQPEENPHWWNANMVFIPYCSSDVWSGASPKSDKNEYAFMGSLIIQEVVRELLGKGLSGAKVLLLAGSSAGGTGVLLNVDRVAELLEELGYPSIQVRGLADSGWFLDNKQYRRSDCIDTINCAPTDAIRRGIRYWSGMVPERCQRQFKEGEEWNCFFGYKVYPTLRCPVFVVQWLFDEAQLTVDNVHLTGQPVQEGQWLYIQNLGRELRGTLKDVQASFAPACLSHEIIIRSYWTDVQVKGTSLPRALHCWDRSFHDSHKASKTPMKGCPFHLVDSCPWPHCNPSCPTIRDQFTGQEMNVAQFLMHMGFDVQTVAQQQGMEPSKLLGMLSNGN
Description: Using the 293.TCF cells, purified SC2.D2.2 and SC2.A106 antibodies were tested for their ability to neutralize murine Notum-His or macaque Notum-Fc activity as follows. 2.5×10^4 293.TCF cells were plated per well of a 96-well tissue culture plate in 50 μL of serum-free medium. After 23 hours of serum starvation, 10 μL of DMEM+0.2% FBS containing the Notum proteins at various concentrations were mixed with 15 μL of purified antibody at various concentrations, and allowed to incubate for 5 minutes at room temperature. The 25 μL antibody/Notum mixture was then added to the 293.TCF cells. After 1 hour, 25 μL of Wnt3A or control L-cell CM were added to each well. Eighteen hours after addition of CM, 100 μL of One-Glo solution (ProMega Corp.) was added to each well. The contents of each well were mixed thoroughly to lyse the cells, 100 μL of lysate transferred to black 96-well plates, and the luminescence read after 5 minutes.

hNotum = target: T3, hNotum (Homo sapiens, UniProt Q6P988); test: Inhibition of hNotum lipase activity (Tween 20); type: biochemical; settings: preincubation, various concentrations
T3 construct: 8x-His; Strep-tag II; IgK signal peptide/leader of the pSEC-CAG vector (N); made in house; host or cells: HEK293T (adherent) / suspension 293 cells
T3 sequence (Q6P988 20-496): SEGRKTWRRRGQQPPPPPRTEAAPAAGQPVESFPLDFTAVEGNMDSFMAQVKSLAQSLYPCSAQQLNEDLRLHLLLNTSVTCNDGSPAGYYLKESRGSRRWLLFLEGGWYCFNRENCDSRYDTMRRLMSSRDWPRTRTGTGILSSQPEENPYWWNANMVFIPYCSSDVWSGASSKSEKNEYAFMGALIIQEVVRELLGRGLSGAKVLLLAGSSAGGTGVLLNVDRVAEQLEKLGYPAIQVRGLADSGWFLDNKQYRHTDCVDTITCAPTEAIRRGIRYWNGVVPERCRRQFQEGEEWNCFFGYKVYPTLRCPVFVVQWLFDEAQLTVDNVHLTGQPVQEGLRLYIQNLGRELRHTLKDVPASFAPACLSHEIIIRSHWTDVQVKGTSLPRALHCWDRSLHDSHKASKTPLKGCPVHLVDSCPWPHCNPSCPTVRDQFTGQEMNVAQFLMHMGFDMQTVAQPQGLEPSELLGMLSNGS
Description: Briefly, recombinant hNotum (1 μg/well) was added to an assay buffer containing 50 mM Tris, pH 7.4, 33.3 mM CaCl2, and 0.33% Tween-20. When the Tween 20 monolauryl group is cleaved by lipases (e.g. hNotum), the free fatty acid forms an insoluble complex with the Ca^2+ cations resulting in a turbid solution, the OD of which can be measured at 405 nm to provide a measure of lipase activity. As a positive control, the activity of porcine pancreatic lipase (Sigma Aldrich) was measured in the same assay.
In order to take advantage of this enzymatic property and further exemplify the properties of the present invention, an assay was run to determine the effects of Notum modulators on the lipolytic activity of Notum. To that end, various concentrations of SC2.D2.2 were preincubated with hNotum for a set period prior to adding the mixture to the assay buffer and measuring the resulting enzymatic activity as described above. The results of the assay are graphically represented in FIG. 20

B1: SC2.D2.2 (antibody, V domains shown)
VH: DVQLVESGGGLVQPGGSRKISCAASGFTFSSYGMHWVRQAPEKGLEWVAYISSSTVTTYYADTVKGRFTISRDNANNTLFLQMTSLRSEDTAMYYCSRQNWDGGYFDVWGAGTTVTVSS
VL: DIVLTQSLASLAVSLGQRATISCRASKSVSSSGYSYMHWYQQKPGQPPKLLIYLASNLESGVPARFSGSGSGTDFTLNIHPVEEEDAATYYCQHSRALPLTFGAGTKLELKR
notes: also called murine SC2.D2.2
**Q.** B1 was tested. Which “affinity, binding curves” value (Notum) did it give?
**A.** excellent affinity

**Q.** What about the “inhibition of murine Notum activity” value (murine Notum-His) of the same molecule?
**A.** did not inhibit; also recorded: without inhibiting murine or macaque versions of the protein

**Q.** And the “effect on lipase activity of Notum” value (hNotum)?
**A.** substantially eliminate the lipase activity of Notum
